Measured values published in patent publication US12356911B2, “Group of UDP-glycosyltransferase for catalyzing carbohydrate chain elongation and application thereof” (GSYNBIOT (SHANGHAI) CO., LTD, priority 2017, dated 2025).
Where a chain is given by its changes, count along the chain named.

B1: GT29-13: Ginseng UDP-glycosyltransferase, 446 amino acids, SEQ ID NO: 22 (protein)
chain: MDNQKGRISIVMLPFLAHGHISPFFELAKHLSKRNCNIFLCSTPINLSSIKNRISDKDSSASIKLVELHLPSSPDLPPHYHTTNGLPSHLMVPLRNAFETAAPTFSEILKTLNPDLLIYDFNPSWAPEIASSHNIPAVCFIIGGAASFSMSLHSFKNPGEKYPFLDFDDNSNITPEPPSADNMKLLLDFMTCFERSCDIILIKSFRELEGKYFDFYSTLSDKTLVPVGPLVQDPMGHNEDPKTEQFINWLDKRAESTVVFVCFGSEYFLSNEELEEVAIGLEISMVNFIWAVRLIEGEKKGVLPEGFVQRVGDRGLVVEGWAPQARILGHSSTGGFVSHCGWSSITESMKFGVPVIAMARHFDQPLNAKLAAEVGVVMEVVRDENGKYKREDIAGVIRKVVVEKSGEVIRRKARELSEKMKEIGEQLIDRAVEELVQICKKKKDEQ
modifications: misc_feature - GT29-13; Panax ginseng
B2: GT29-18: Ginseng UDP-glycosyltransferase, 446 amino acids, SEQ ID NO: 26 (protein)
chain: B1 chain with V377G, I409M, I423K, Q426E, L427E, E445A
modifications: misc_feature - GT29-18; Panax ginseng
B3: GT29-17: Ginseng UDP-glycosyltransferase, 442 amino acids, SEQ ID NO: 24 (protein)
chain: MDNQEGRISIALLPFLAHGHISPFFELAKQLAKRNCNVFLCSTPINLSSIKNKDSSASIKLVELHLPSSPDLPPHYHTTNGLPSHLMVPLINAFETAGPTFSEILKTLNPDLLIYDFNPSWAPEIASSHNIPAVCFIIGGAASFSMSLHSFKNPGEKYPFLDFDDNSNITPEPPSADNMKLLLDFMTCFERSCDIILIKSFRELEGKYFDFYSTLSDKTLVPVGPLVQDPMGHNEDPKTEQFINWLDKRAESTVVFVCFGSEYFLSNEELEEVAIGLEISMVNFIWAVRLIEGEKKGVLPEGFVQRVGDRGLVVEGWAPQARILGHSSTGGFVSHCGWSSITESMKFGVPVIAMARHFDQPLNAKLAAEVGVGMEVVRDENGKYKREDIAGVIRKVVVEKSGEVIRRKARELSEKMKEIGEQLIDRAVEELVQICKKKKDEQ
modifications: misc_feature - GT29-17; Panax ginseng
B4: GT29-19: Ginseng UDP-glycosyltransferase, 442 amino acids, SEQ ID NO: 116 (protein)
chain: MDNQEGRISIALLPFLAHGHISPFFELAKQLAKRNCNVFLCSTPINLSSIKNKDSSASIKLVELHLPSSPDLPPHYHTTNGLPSHLMVPLINAFETAGPTFSEILKTLNPDLLIYDFNPSWAPEIASSHNIPAVYFLTTAAASSSIGLHAFKNPGEKYPFPDFYDNSNNTPEPPSADNMKLLHDFIACFERSCDIILIKSFIELEGKYIDLLSTLSDKTLVPVGPLVQDPMGHNEDPKTEQIINWLDKRAESTVVFVCFGSEYFLSNEELEEVAIGLEISMVNFIWAVRLIEGEKKGVLPEGFVQRVGDRGLVVEGWAPQARILGHSSTGGFVSHCGWSSITESMKFGVPVIAMARHFDQPLNAKLAAEVGVGMEVVRDENGKYKREDIAGVIRKVVVEKSGEVIRRKARELSEKMKEIGEQLIDRAVEELVQICKKKKDEQ
modifications: misc_feature - GT29-19; Panax ginseng
B5: GT29-20: Ginseng UDP-glycosyltransferase, 442 amino acids, SEQ ID NO: 118 (protein)
chain: MDNQKGRISIALLPFLAHGHISPFFELAKQLAKRNCNVFLCSTPINLSSIKDKDSSASIKLVELHLPSSPDLPPHYHTTNGLPSHLMLPLRNAFETAGPTFSEILKTLNPDLLIYDFNPSWAPEIASSHNIPAVYFLTTAAASSSIGLHAFKNPGEKYPFPDFYDNSNITPEPPSADNMKLLHDFIACFERSCDIILIKSFRELEGKYIDLLSTLSDKTLVPVGPLVQDPMGHNEDPKTEQIINWLDKRAESTVVFVCFGSEYFLSNEELEEVAIGLEISTVNFIWAVRLIEGEKKGILPEGFVQRAGDRGLVVEGWAPQARILGHSSTGGFVSHCGWSSIAESMKFGVPVIAMARHLDQPLNGKLAAEVGVGMEVVRDENGKYKREGIAEVIRKVVVEKSGEVIRRKARELSEKMKEKGEQEIDRALEELVQICKKKKDEQ
modifications: misc_feature - GT29-20; Panax ginseng
B6: GT29-21: Ginseng UDP-glycosyltransferase, 442 amino acids, SEQ ID NO: 120 (protein)
chain: B5 chain with H18N, A307V, T329I
modifications: misc_feature - GT29-21; Panax ginseng
B7: GT29-22: Ginseng UDP-glycosyltransferase, 442 amino acids, SEQ ID NO: 122 (protein)
chain: B5 chain with A307V, S344I
modifications: misc_feature - GT29-22; Panax ginseng

What was measured:
Type in all cases: biochemical
[1] = In vitro transglycosylation at C-6, Rg1 as glycosyl acceptor, UDP-xylose as donor; conditions: crude enzyme (E. coli lysate supernatant); TLC and HPLC, FIG. 7-9
[2] = In vitro transglycosylation at C-3, Rd as glycosyl acceptor, UDP-xylose as donor; conditions: crude enzyme (E. coli lysate supernatant); TLC, FIG. 14
[3] = In vitro transglycosylation at C-3, Rh2 as glycosyl acceptor, UDP-glucose as donor; conditions: crude enzyme (E. coli lysate supernatant); TLC, FIG. 13, FIG. 15
Text: Cell lysate of recombinant E. coli with empty vector pET28a was used as a control.

Molecule	product formation from Rg1 and UDP-xylose (notoginsenoside R1) [1]	product formation from Rd and UDP-xylose (replacement of second glucose at C-3 with xylose) [2]	product formation from Rh2 and UDP-glucose (Rg3) [3]
B1	can catalyze the formation of Notoginsenoside RI	–	–
B2	can catalyze the formation of Notoginsenoside RI	–	–
B3	can catalyze the formation of Notoginsenoside RI	–	–
B4	–	can all catalyze the replacement of the second glucose at C-3 position of Rd with xylose	can all catalyze the extension of a glucosyl at the C-3 glycosyl of Rh2 to generate Rg3
B5	–	can all catalyze the replacement of the second glucose at C-3 position of Rd with xylose	can all catalyze the extension of a glucosyl at the C-3 glycosyl of Rh2 to generate Rg3
B6	–	can all catalyze the replacement of the second glucose at C-3 position of Rd with xylose	can all catalyze the extension of a glucosyl at the C-3 glycosyl of Rh2 to generate Rg3
B7	–	can all catalyze the replacement of the second glucose at C-3 position of Rd with xylose	can all catalyze the extension of a glucosyl at the C-3 glycosyl of Rh2 to generate Rg3
